For this experiment, the target named is T1, human TSG101 UEV (1-145) domain (human, UniProt Q99816 1-145).
T1 sequence (looked up): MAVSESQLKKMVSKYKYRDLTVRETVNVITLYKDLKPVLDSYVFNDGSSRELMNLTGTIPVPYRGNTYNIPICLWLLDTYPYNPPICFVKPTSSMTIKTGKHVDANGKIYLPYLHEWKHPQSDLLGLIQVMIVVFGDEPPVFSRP
The experiment is described as follows: fluorescence polarisation. On the technique in general: Polarisation of emitted light reports the rotation of a fluorescent probe.

B1: GAG (HIV-2) peptide, residues 450-465, unlabeled (peptide)
chain: APQGLIPTAPPADPAA
With B1, binding was characterised by a dissociation constant (Kd) of 6 µM. This counts as single-digit micromolar.

B2: GAG (HIV-1) residues 449-464, unlabeled peptide (peptide, UniProt P04591 449-464, looked up)
peptide: LQSRPEPTAPPEESFR
For the molecule B2, the Kd (in general, a measure of binding affinity in units of concentration) amounted to 15.3 µM.
